Laboratory results reported in publication PMC4882453, “Monoacylglycerol Lipases Act as Evolutionarily Conserved Regulators of Non-oxidative Ethanol Metabolism” (The Journal of Biological Chemistry, 2016).

Substrate: CCCCCCCCCCCCCCCC(=O)OCC
Experiment: release of fatty acid, substrate saturation, nonlinear regression
Assay type: biochemical, Saccharomyces cerevisiae
Details: CHAPS-emulsified substrate, Bistris propane, pH 7, 1 mM EDTA, 37 °C, 30 min

B1: His6-tagged Yju3p (Saccharomyces cerevisiae S288C) (protein)
chain: MAPYPYKVQTTVPELQYENFDGAKFGYMFWPVQNGTNEVRGRVLLIHGFGEYTKIQFRLMDHLSLNGYESFTFDQRGAGVTSPGRSKGVTDEYHVFNDLEHFVEKNLSECKAKGIPLFMWGHSMGGGICLNYACQGKHKNEISGYIGSGPLIILHPHTMYNKPTQIIAPLLAKFLPRVRIDTGLDLKGITSDKAYRAFLGSDPMSVPLYGSFRQIHDFMQRGAKLYKNENNYIQKNFAKDKPVIIMHGQDDTINDPKGSEKFIQDCPSADKELKLYPGARHSIFSLETDKVFNTVFNDMKQWLDKHTTTEAKP
notes: expression construct described previously (YJU3 for the GFP fusions was cloned from BY4742 genomic DNA)
With B1 the Km was 780 µM.
